Measurements taken from patent US20110183922A1 (UNIVERSITY OF MIAMI, published 2011).

What was measured:
[1] = target: AChE expressed in COS cells (human and/or mouse AChE) (human and/or mouse); test: cell-based or functional assay
[2] = target: AChE of primary quail muscle cells (quail); test: cell-based or functional assay

## CCLLTPPPPPLFPPPFFKDEL [ColQ PRAD-KDEL peptide]
[1]
  G4 AChE level: 2.37

## KRSVNKCCLLTPPPPPLFPPPFFTETNILKDEL [SEQ ID NO: 11]
[1]
  G4 AChE level: 2.14

## CCLLTPPPPPLFPPPFF [ColQ PRAD peptide (17 amino acid ColQ PRAD polypeptide)]
[2]
  tetrameric G4 AChE activity in the medium (velocity sedimentation, 10 uM peptide overnight): > 2 fold

## KRSVNKCCLLTPPPPPLFPPPFFKDEL [SEQ ID NO: 9]
[1]
  G4 AChE level: 2.37

## VNKCCLLTPPPPPLFPPPFFKDEL [SEQ ID NO: 6]
[1]
  G4 AChE level: 2.26

## VNKCCLLTPPPPPLFPPPFFTETLDEL [SEQ ID NO: 8]
[1]
  G4 AChE level: 2.17
